The target in assay [1] is cynomolgus monkey (cyno) GITR (cynomolgus monkey).
The target is the same in assay [2]. The source holds these as a separate data set.

In the case of MEDI1873 (Fc fusion), the Jurkat NFκB reporter gene assay with cyno GITR-transfected cells, EC50 in assay [1] was 0.422 nM. Further, the Kd (as a rule, the free concentration of one partner at which half of the binding sites on the other are occupied at equilibrium, for simple one-to-one binding) in assay [2] was determined as 107 nM.

(Values after paper PMC5384396.)
